Columns and labels:
[1] = target: T1, revertant virus (AD169 CMV with the pentameric gH complex restored); assay: cell-based or functional assay
[2] = target: T1, revertant virus (AD169 CMV with the …); assay: antibody-titration EIA, coated revertant virions
recombinant gB = target: T2, recombinant gB (human cytomegalovirus (CMV), UniProt P06473 32-700); assay: EIA on recombinant gB
T2 construct: also called gB protein; recombinant gB antigen
T2 sequence (P06473 32-700 limits assumed): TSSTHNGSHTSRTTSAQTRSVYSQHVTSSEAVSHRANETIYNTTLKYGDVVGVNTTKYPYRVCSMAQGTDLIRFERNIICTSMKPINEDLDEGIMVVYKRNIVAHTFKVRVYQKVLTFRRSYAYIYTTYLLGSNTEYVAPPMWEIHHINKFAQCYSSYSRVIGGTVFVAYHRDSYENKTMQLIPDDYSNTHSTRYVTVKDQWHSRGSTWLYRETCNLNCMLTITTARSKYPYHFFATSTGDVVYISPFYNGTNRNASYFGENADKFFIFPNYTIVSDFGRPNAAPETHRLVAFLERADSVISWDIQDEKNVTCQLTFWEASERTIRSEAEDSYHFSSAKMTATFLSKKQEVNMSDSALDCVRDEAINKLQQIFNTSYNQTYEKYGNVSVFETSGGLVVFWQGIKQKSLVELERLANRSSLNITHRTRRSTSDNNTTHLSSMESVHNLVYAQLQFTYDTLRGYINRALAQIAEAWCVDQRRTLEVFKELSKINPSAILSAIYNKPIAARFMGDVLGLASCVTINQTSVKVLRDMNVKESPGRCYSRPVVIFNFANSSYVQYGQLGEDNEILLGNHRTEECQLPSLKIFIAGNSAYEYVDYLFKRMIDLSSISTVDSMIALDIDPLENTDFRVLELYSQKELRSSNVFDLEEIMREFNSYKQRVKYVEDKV

Row | Binder | Neutralization in ARPE-19 cells EC50 [1] | Neutralization in MRC-5 cells EC50 [1] | EC50 [2] | binding result (recombinant gB)
1 | 350.1 (antibody, V domains shown, rabbit hybridoma mAb; also called clone 350.1; mAb 350.1) VH: QSLEESGGDLVKPGASLTLTCTASGFSFSNSYYMCWVRQAPGKGLEWIVCIYAGSSGFTYYANWAKGRFTVSKTSSTTVTLQMTSLTAADTATYFCARDRGYYTYGYAGYGYGMDLWGPGTLVTISS VL: ELDMTQTPSPVSTAVGGTVSISCQSGQNVWTNDYLSWYQQKPGQPPKLLIYRASTLASGVPSRFKGSGSGTQFTLTISDVQCDDAATYYCGGTFLSNGDNGFGGGTEVVVK | 100 µg/mL | 100 µg/mL | 0.02 µg/mL | 
2 | 57.4 (antibody, V domains shown, rabbit hybridoma mAb (not the humanized version); also called clone 57.4; mAb 57.4) VH: QSLEESGGGLVKPGGTLTLTCTASGFSFSSVYDMSWVRQAPGKGLEWIASIVTGSRTTWYASWAKGRFTVSKTSSTTVTLQMTSLTAADTATYFCARGEYGHDGYVDGTMGLGLWGPGTLVTISS VL: ELDLTQTPASVEAAVGGTVAIKCQASQSIRRHLSWYQQKPGQRPKLLIYGASNLASGVSSRFKGSGSGTEFTLTISDLECADAATYYCQCTYGVGFSSTYGDAFGGGTELEIL | 0.01 µg/mL | 100 µg/mL | 0.09 µg/mL | no binding (tested: 1 µg/ml)
3 | 276.10 (antibody, V domains shown, rabbit hybridoma mAb (not the humanized version); also called clone 276.10) VH: QSLEESGGDLVQPEGSLTLTCTASGFSFSGSYYMCWVRQAPGTGLEWIACIDGDLSGSAYYANWAKGRFTISGTSSTTVTLQVTSLTAADTATYFCAREGPVGVGSIYLGFDLWGPGTLVTISS VL: ELDLTQTPASVEVPVGGTVTIKCQASHNINTYLSWYQQKPGQPPKLLIYRASDLASGVSSRFSGSGSGTQFTLTISGVECADAATYYCQQGFNSLNVENVFGGGTEVVVK | 0.01 µg/mL | 100 µg/mL | 0.25 µg/mL | no binding (tested: 1 µg/ml)
4 | 58.5 (antibody, V domains shown, rabbit hybridoma mAb (not the humanized version); also called clone 58.5) VH: QSLEESGGRLVTPGGSLTLTCTVSGFSLSAYSVSWVRQAPGKGLEWIGIIGHSGNTYYASWAKGRFTISKTSTTVDLKITSLTTEDTATYFCAREDYRYGDYGYYWDFNFWGPGTLVTISS VL: ELDLTQTASPVSAPVGGTVTINCQASQNIYSNLAWYQQKPGQPPKLLIYGASTLASGVSSRFKGSRSGTEFTLTISDLECADAATYYCQSYVYSSSTADTFGGGTEVVVK | 0.02 µg/mL | 100 µg/mL | 0.59 µg/mL | no binding (tested: 1 µg/ml)
5 | 223.4 (antibody, V domains shown, rabbit hybridoma mAb; also called clone 223.4) VH: QSLEESGGRLVTPGTPLTLTCTVSGFSLSAYSVSWVRQAPGKGLEWIGIIGHSGNTYYANWAKGRFTISKTSTTVDLKITSLTIEDTATYFCAREDYRYGDYGYYWDFNFWGPGTLVTISS VL: ELVMTQTPSPVSAPVGGTVTISCQASRSVYNENYVAWFQHRPGQPPKLLIYTTSILASGVPSRFKGRGSGTQFTLTISDVQCDDAATYYCAGDYDDNEENAFGGGTELEIL | 0.06 µg/mL | 100 µg/mL | 1.54 µg/mL | no binding (tested: 1 µg/ml)
6 | 212.6 (antibody, V domains shown, rabbit hybridoma mAb; also called clone 212.6) VH: QSLEESGGRLVTPGTPLTLTCTVSGFSLSSYAMSWVRQAPGKGLEWIGIIGSSGNTYYASWAKGRFTISKTSTTVDLKITSPTTEDTATYFCARGGYSYDDYTPFDLWGPGTLVTVSS VL: ELVLTQSPSLSASLGTTARLTCTLSTGYSVGKYPLVWLQQVPGRPPRYLLTYHTEEFKHQGSGVHSRFSGSKDTSENAGVLSISGLQPEDEADYYCATAHATESSLHYVFGGGTQLTVT | 3.71 µg/mL | 100 µg/mL | 52.9 µg/mL | 
7 | 347.3 (antibody, V domains shown, rabbit hybridoma mAb; also called clone 347.3) VH: QSLEESEGRLVTPGTPLTLTCTVSGIDLSTYAMNWVRQAPGKGLEWIGIIGSSGGAYYASWAKGRCTISKTSTTVDLKITSPTTEDTATYFCAVSLYTYDDYADYFLWGPGTLVTISS VL: ELVLTQSPSLSASLGTTARLTCTLSTGYSVGKYPLVWLQQVPGRPPRYLLTYHTEEFKHQGSGVHSRFSGSKDTSENSFVLRIFGLQPEDEADYYCVTAHPTESSLHYVFGGGTQLTVT | 0.03 µg/mL | 100 µg/mL | 0.34 µg/mL | no binding (tested: 1 µg/ml)
8 | 70.7 (antibody, V domains shown, rabbit hybridoma mAb; also called clone 70.7) VH: QSVEESRGRLVTPGTPLTLTCTASGFSLSSYHMIWVRQAPGKGLEWIGYINYNNNPYYATWAKGRFTISRTSTTVALKITSPTTEDSATYFCARAAGNYYVGALNLWGPGTLVTISS VL: ERDMTQTPASVEVAVGGTVTIKCQASQSIGNLLAWYQQKPGQRPKLLIYDASTLASGVPSRFKGSGSGTEFTLTISGVQCADAATYYCQQGYMITNVENAFGGGTEVVVK | 0.03 µg/mL | 0.09 µg/mL | 1.46 µg/mL | no binding (tested: 1 µg/ml)
9 | 316.2 (antibody, V domains shown, rabbit hybridoma mAb; also called clone 316.2) VH: QSVKESEGRLVTPGTPLTLTCTASGFSLSSYHMIWVRQAPGKGLEWIGYINNNDNPYYATWAKGRFTISRTSTTVALKITSPTTKDTATYFCARAAGNYYVGALNLWGPGTLVTISS VL: ELVLTQTPASVEVAVGGTVTIKCQASQTIGNLLGWYQQKPGRPPKLLIYDASTLASGVPSRFKGSGSATEFTLTIRGVQCDDAATYYCQQGYMITNVENAFGGGTEVVVK | 0.02 µg/mL | 0.08 µg/mL | 1.06 µg/mL | no binding (tested: 1 µg/ml)
10 | 270.7 (antibody, V domains shown, rabbit hybridoma mAb; also called clone 270.7) VH: QSVEESGGRLVTPGTPLALTCTASRFSLSSNHMIWVRQAPGKGLEWIGYINYNNNPYYATWAKGRFTISRTSTTVALKITSPTTEDTATYFCARAAGNYYVGALNLWGPGTLVTISS VL: ELVMTQTPASVEVAVGGTVTIKCQASQSIGNLLAWYQQEPGQRPKLLIYDASTLASGVPSRFKGSGSGTEFTLTISGVQCADAATYYCQQGYMITNVENAFGGGTNVEIK | 0.02 µg/mL | 0.06 µg/mL | 0.68 µg/mL | no binding (tested: 1 µg/ml)
11 | 124.4 (antibody, V domains shown, rabbit hybridoma mAb; also called clone 124.4) VH: QSLEESGGRLVTPGTPLTLTCTVSGFSLSSCNMGWVRQAPGEGLEWIGYIAASGDAFYASWAKGRFTISKTSSTTVDLRITSPTTEDTAAYFCARGSYAAYNAWDLWGPGTLVTVSS VL: ELDMTQTASPVSAAVGGTVTINCQSSQSVYNKNYLSWYQQKPGQPPKLLIYGASTLPSGVPSRFKGSGSGTQFTLTISEVQCDDAATYYCQGYYSGYIYAFGGGTEVVVK | 0.05 µg/mL | 0.08 µg/mL | 1.72 µg/mL | no binding (tested: 1 µg/ml)
12 | 324.4 (antibody, V domains shown, rabbit hybridoma mAb; also called clone 324.4) VH: QSVKESEGRLVTPGTPLTLTCTVSGFSPSSYNMGWVRQAPGEGLEWIGYISTSGNTFYASWAKGRFTISKTSTTVDLRITSPTTEDTATYFCARGSYVAYNAWDLWGPGTLVTISS VL: ELDLTQTASPVSAAVGGTVTINCQSSQSVYNNNYLSWYQQKPGQPPKLLIYGASTLASGVPSRFKGSGSGTQFTLTISEVQCDDAATYYCQGYYSGYIYAFGGGTEVVVK | 0.1 µg/mL | 0.21 µg/mL | 4.09 µg/mL | no binding (tested: 1 µg/ml)
13 | 210.4 (antibody, V domains shown, rabbit hybridoma mAb; also called clone 210.4) VH: QSVEESGGRLVTPGTPLTLTCTVSGFSLSTNAMSWVRQAPGKGLEWIGYIWSGGSTYYASWAKGRFAISKTSTTVDLKITSPTTEDTATYFCAKNGDNGQLDLWGQGTLVTVSS VL: ELVLTQTPSPVSAAVGGTVTINCQTSQSLYNNNFLSWYQQKPGQPPKLLIYKASTLESGVPSRFKGSGSGTQFTLTISGVQCDDAATYYCQGEFSCSSADCNAFGGGTEVVVK | 100 µg/mL | 100 µg/mL | 0.03 µg/mL | 
14 | 240.8 (antibody, V domains shown, rabbit hybridoma mAb; also called clone 240.8) VH: QSVEESGGGLVTPGGTLTLTCGVSGIDLSANEMGWVRQAPGEGLEWIGTLSYHNIPHYATWAKGRFTISKTSTTVDLKITSPTSADTATYFCGRVFTSTSFDPWGPGTLVTISS VL: ELVMTHPPASVSAPVGGTVTIKCQASHNIGSRLPWYQQEPGQPPKLLIYRTSTLASGVPSRFTGSGYGTEFTLTISDLECADAATYYCQDHDDISHAFGGGTNVEIK | 0.79 µg/mL | 100 µg/mL | 2.6 µg/mL | 

— patent US20160130327A1 (Merck Sharp & Dohme, published 2016)
